This test concerns the target T1, human Tetraspanin 33 (TSPAN33) (human, UniProt Q86UF1 1-283).
T1 sequence: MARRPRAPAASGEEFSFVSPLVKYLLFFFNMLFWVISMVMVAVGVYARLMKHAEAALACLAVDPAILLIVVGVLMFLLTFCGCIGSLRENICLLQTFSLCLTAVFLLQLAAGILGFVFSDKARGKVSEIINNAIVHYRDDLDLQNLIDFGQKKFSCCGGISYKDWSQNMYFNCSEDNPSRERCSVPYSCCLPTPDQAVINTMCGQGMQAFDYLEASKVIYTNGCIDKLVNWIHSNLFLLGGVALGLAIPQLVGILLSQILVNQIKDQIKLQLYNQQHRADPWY
As to the kind of experiment: flow cytometry on human PBMCs activated with CD40L and IL-4; detection with anti-mouse IgG PE. The procedure: Human peripheral blood mononuclear cells (PBMCs) were isolated in aseptic conditions through a gradient of Ficoll-Paque PLUS (GE Healthcare) according manufacturer instructions. The PBMCs were counted and adjusted in complete RPMI-1640 (10% fetal bovine serum, […] Penicillin, and 1 mg/ml Streptomycin) to a cell density of 1×10⁶ cells/mL. Cells were activated by adding CD40L (TNFSF5; 1 μg/mL) and recombinant human IL-4 (100 U/mL) to the culture. The cells were incubated overnight at 37° C. with 5% CO₂.
The next day the cells were washed with Biolegend's Cell Staining Buffer, and 1×10⁶ cells were stained for 15 minutes in the dark with anti-human CD20-APC and purified anti-human TSPAN33 or purified mouse IgG2b, k isotype control, in a volume of 100 μL. Cells were washed twice with 3 mL of Cell Staining Buffer and then stained for 15 minutes in the dark with anti-mouse IgG PE, in a volume of 100 μL. Then the cells were washed twice with 3 mL of Cell Staining Buffer and analyzed on a flow cytometer. 7-AAD Viability Staining Solution was used to exclude dead cells from analysis.
Background: In flow cytometry, cells or beads pass a laser one at a time.

B1: AB1, mouse anti-TSPAN33 monoclonal antibody (antibody, V domains shown)
VH: EVKLVESGGGLVQPGGSLSLSCAASGFTFTDYYMTWVRQPPGKALEWLVFIRNKANGYTTEYSASVKGRFTISRDNSQSILYLQMNALRAEDSATYYCARYLQTGNFDYWGQGTTLTVSS
VL: EIQMIQTTSSLTASLGDRVTISCRASQDISNFLNWYQQKPDGTIKLLIYFTSRLHSGVPSRFSGSGSGTDYSLTISNLEQEDIATYFCQQGYTVPPTFGGGTKLEIK
notes: Murine monoclonal antibody from a hybridoma; also called AB (clone) Number 1
For the molecule B1, the binding result is “binds”.

Source of the values: patent publication US20210095018A1 (BIOLEGEND, published 2021).
